# Data: the nanobody polyreactivity screen of Harvey et al. (2022)
# Experiment: yeast display, Sf9 membrane polyspecificity reagent, FACS + sequencing; frameworks hold sequencing errors
# How it was run: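 Nanobodies came from a synthetic yeast display library in Saccharomyces cerevisiae BJ5465, induced with galactose for 36–48 hours and stained for 1 hour at 4 °C with 10% biotinylated, detergent-solubilized Sf9 membrane reagent. Cells were enriched on streptavidin microbeads and then FACS-sorted, with low and high (top ~1%) gates set on anti-HA fluorescence for expression and streptavidin fluorescence for reagent binding. Each polyreactivity label reflects the gate a clone came from. Genes were amplified by colony PCR, sequenced by MiSeq 2 × 250 and filtered by CDR length.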
sequence,measurement,value
QVQLVESWAGVVQAGGSLRLSCAASGSIFRNAMGWYRQAPGKERELVAGIRWSYGSTNYADSVKGRFTISRDNAKNSVYLQMNSLKPEDTAVYYCAKGAYYARRMYFWGQGTQVTVSS,polyreactivity (PSR sort gate),low polyreactivity
QVQLVESWGGFVQAGGSLRLSCAASGSIFKGYVMGWYRQAPGKERELVAAISGSGGSTYYADSVKGRFTISRDNAKNTVYIQMNSLKPEDTAVYYCAARYRYWGGSGFKGFDYWGQGTQVTVSS,polyreactivity (PSR sort gate),high polyreactivity
QVQLVESWGGIVQAGGSLRLSCAASGSTFHDYAMGWYRQAPGKERELVAAISRRASRTYYADSVKGRFTISRDNAKNTDFLQMNSLKPEDTAVYDCNTDQSQKTVVYDYWGQGTQVTVSS,polyreactivity (PSR sort gate),high polyreactivity
QVQLVESWGGLFQAGGSLRLSCAASGRIWWNAMGWYIQSPGKERELVAAIRWSGGITRYADSVKGRFTFSGDNAKNTVYLQMKSLKPEDTAVYYCAARRNTVTGYQYYYWGQGTQVSVSS,polyreactivity (PSR sort gate),high polyreactivity
QVQLVESWGGLVKAGGSLRLSCAASGRTIRGYTMGWNRQAPGKQRELVAAISQSGGRTHYADSVKGRFTISRDNAKNTVYLEMKSLKPEDTAVYYCAARGQRERSYPLYDYWGQGTQVTVSS,polyreactivity (PSR sort gate),high polyreactivity
QVQLVESWGGLVLAGGRLRLSCAASGSTFPYNAMGWYRQAPGKERELVAVISQRGGSTYYADSLKGRFTISRDNAKNSVYLQMKSLKPEDTAVYYCAAEYIVTYGYDYWGQGTQVTVSS,polyreactivity (PSR sort gate),high polyreactivity
QVQLVESWGGLVQAGGSLPLRCAASGRTFVQYAMGWYRQAPGKERELVAAISLSGGRTYYADSVKGRFTISRDNAKNTVYLQMNSLKPEDTAVYYFSARDSSRYYWGQGTQVTVSS,polyreactivity (PSR sort gate),high polyreactivity
QVQLVESWGGLVQAGGSLRLSCAASGFNPNAMGWYRQAPGKERELVAAISSNGGSTYYADSVKGRFTISRDNAKKTVYLQMNSLKPEDTAVYYCNRDQWRHTPAEGYYWGQGTQVTVSS,polyreactivity (PSR sort gate),low polyreactivity
QVQLVESWGGLVQAGGSLRLSCAASGFTFYGYAMGWYRQAPGKERELVAAISRRSSSTYYADSVKGRFTISRDNAKNTVYLQMNSLKPEDTAVYYCNTVFQLSGYAAGVDYWGQGTQVTVSS,polyreactivity (PSR sort gate),high polyreactivity
QVQLVESWGGLVQAGGSLRLSCAASGGIFWNYAMGWYRQAPGKERELVATISSGGSTKYADSVKGRFTISRDNAKNTVYLQMNSLKPEDTAVYYCNKVFPNLYIYVVRGLIEMDYWGQGTQVTVSS,polyreactivity (PSR sort gate),low polyreactivity
QVQLVESWGGLVQAGGSLRLSCAASGNIFYFYAMGWYRQAPGKERELVAAITSVGSTKYADSVKGRFTISRDNAKNTVYLEMNCLKPEDTAVYYCAARRWRSYYYWGQGTHVTVSS,polyreactivity (PSR sort gate),high polyreactivity
QVQLVESWGGLVQAGGSLRLSCAASGNTFIEYAMGWYRQAPGKERELVAAINWNGGSTYYADSVKGRFTISRDNAKNTVYFQMNSLTPEDTAVYYCAADTFRLYGALAEYDYWGQGTQVTVSS,polyreactivity (PSR sort gate),low polyreactivity
QVQLVESWGGLVQAGGSLRLSCAASGRIFWKYTMGWYRQAPGKERELVAAIRSGGGSTDYADSVKGRFTISRDNAKNSVYLQMNRLIPEDTAGYYCAAEPSQRYPLSGYVYWGQGTQVTVSS,polyreactivity (PSR sort gate),low polyreactivity
QVQLVESWGGLVQAGGSLRLSCAASGRIFYDYAMGWYRQAPGKERELVAAISKGGGSTYYADSVKGRFTISRDNAKKTVYLQMNSLKAEDTAVYFCAASTSHTTDTRYDYWGQGTQVTVSS,polyreactivity (PSR sort gate),low polyreactivity
QVQLVESWGGLVQAGGSLRLSCAASGRTFFYYAMGWYRQAPWKERELVAAISKSGGRTYYADSVKGRFTISRDNAKNTVYLQMNSLKPEDTAVYYCATLAQWYDRELDYWGQGTQVTVSS,polyreactivity (PSR sort gate),high polyreactivity
QVQLVESWGGLVQAGGSLRLSCAASGRTFYSYVMGWYRKAPGKEREMVAAITSGGSTYYADSVKGRFTISRDNAKNTVYLQMNSLKPEDTAVYYCAADGDYASYDTFWYWAPEYDYWGQGTQVTVSS,polyreactivity (PSR sort gate),low polyreactivity
QVQLVESWGGLVQAGGSLRLSCAASGSIFGENAMGWYREAPRKEMELVAAITSGGSTDYADSVKGRFTISRDNAKNTVYLQMNSPKVEDTAVYYCAASGRVGPGYCYDSWGQGTQVTVSS,polyreactivity (PSR sort gate),low polyreactivity
QVQLVESWGGLVQAGGSLRLSCAASGSIFPWYAMGWYREAPGKERELVAAISKSGAGTYYADSVKGRFTISRDNAKNTVYLQMNSLKPEDTAVYYCNAVYRKTSYGYWGQGTQVTVSS,polyreactivity (PSR sort gate),high polyreactivity
QVQLVESWGGLVQAGGSLRLSCAASGSTFRRNAMGCYRQAPGKERELVAAITRSGDSTYYADSVKGRFTISRDYAKNTVYLQMNSLKPEDTAVYYCAADSSRYRYRNQGYYWGQGTQVTVSS,polyreactivity (PSR sort gate),high polyreactivity
QVQLVESWGGLVQAGGSLRLSCAASGSTFSLYTMGWYRQAPGKERELVATIDSGGSTNYADSVKGRFTISRDNAKNTVYLQMNSLKPEDTAVYYCVDYYNGYTHNYNYWGQGTQVTVSS,polyreactivity (PSR sort gate),low polyreactivity
QVQLVESWGGLVQAGGSLRLSCAASGSTIAYYVLGWYRQAPRKERELVAAINFSGDSTYYADSVKGRFTNSRDNAKNTVNLQMNSLKPEDTAVYYCAVDWGEYIDTSVKRDISYYWGQGTQVTVSS,polyreactivity (PSR sort gate),low polyreactivity
QVQLVESWGGLVQAGGSLRLSCAASGYISNAMGWYRQAPGKERELVAVITRGGSTNYADSVKGRFTISRDNAKNTVYLQMNSLKPEDTAVYYCAKDVPYRRVRSEYWGQGTQVTVSS,polyreactivity (PSR sort gate),low polyreactivity
QVQLVESWGGLVQAGGTLRLSCAASGSTFTLNCMGWYRQAPGKERELVASITWSGGSTYYADSVKGRFTISRDNAKNTVYLQMNSLKPEDTAVYYCADDEKLYITGYDYWGQGTQVTVSS,polyreactivity (PSR sort gate),low polyreactivity
QVQLVESWGGLVQEGGSLRLSCAASGSTFGPYAMGWYRQAPGKERELVAAITESGDSTYYADSVKGRFTISRDNAKNSVYLQMNSLKPEDTAVYYCAATRGSSEYYYWGQGTQVTVSS,polyreactivity (PSR sort gate),low polyreactivity
QVQLVESWGGLVQSGGSLRLSCAASGFTFGHNAMGWYIQAPGKERELVAAIDTSGGSTYYADSVKGRFTISRDNEKNTVYLKMNSLKPEDTAVYYCAAFSASYGGYDYWGQGTQVTVSS,polyreactivity (PSR sort gate),high polyreactivity
QVQLVESWGGLVQSGGSLRLSCAASGSIFSFYPMGWYRQAPGKERELVAAISSGGSTYYADSVKGRFTISRDNAKNTVYLQMNSLKPEDTAVYYCAADQHIRVSWYLQMYYWGQGTQVTVSS,polyreactivity (PSR sort gate),low polyreactivity
QVQLVESWGGVVQAGGSLRLSCAASGRIFQHYAMGWYRQAPGKERELVAAISWRGGSTYYADSVKGRFTISRDNAKNTVFLQMNSLKPEDTAVYYCAAGYRGRIPGFDYWGQGTQVTVSS,polyreactivity (PSR sort gate),high polyreactivity
QVQLVESWGRLVQAGGSLRLSCAASGSTFTGNAMGWYRQAPGKERELVAVISSGASTNYADSVKGRFTISRDNAKNSVSLQMNSLKAEDSAVYYCAADSWDYDSRMDYWGQGTHVTVSS,polyreactivity (PSR sort gate),low polyreactivity
QVQLVESWGVLVQAGGSLRLSCAASGSIFYYYVMGWYRQAPWKERELVAAISYGGGTNYADSVKERFTISRDNAKNTVYLQMISLKPEDTAVYYCNVVTYRRFDYWGQGTQVTVSS,polyreactivity (PSR sort gate),low polyreactivity
QVQLVETCGGLDQAGVSLRLSCAASGIIFKTYAMGWYRQAPGKETEYVAPISVSGGGTYYADSVKGRFTISRDNAKNTVYLQMNSPKPEDTAVYYCAARSWYWRYYTLNPYDYWVQGTQVTVSS,polyreactivity (PSR sort gate),high polyreactivity
QVQLVETGGGLFQAGGSLRISCAASGSTFYTYAMGWYRQSPGKERELVAAITRRGGRTYYADSVKGRFTISRDNAKNTVYLQMNSLKPEDTAVYYCAADSRTNGYDYWGQGTQVTVSS,polyreactivity (PSR sort gate),high polyreactivity
QVQLVETGGGLVHAGGSLRLSCAASGFIFVVNAMGWYRQAPGKERELVAAITRNGGSTYYADSVKGRFSISRDNEKNTVYLQMNSLKPEDTAVYYCATYVRRAPSTFDVDYWGLGTQVTVSS,polyreactivity (PSR sort gate),high polyreactivity
QVQLVETGGGLVHAGGSLRLSCAASGITFTTNTMGWYRQAPGKERELVAAISSTGGNTFYADSVKGRFTISRDNAKNTVYLQMNSLKPEDTAVYYCSYVPSNARGEYDSWGQGTQVTVSS,polyreactivity (PSR sort gate),low polyreactivity
QVQLVETGGGLVKAGGSLRLSCGASGFIFTYNAMGWYRQAPGKERELVAAISGSGGRTYYADSVKGRFTISRDNAKNTVYLQMNSLKPEDTAVYYWNRDPKSLSYGSRGFGYWGLGTQVTVSS,polyreactivity (PSR sort gate),high polyreactivity
QVQLVETGGGLVQAGASLRLSCAASGRTFVYNAMGWYRQAPGKEREFVAAIDGGGDRTFYADSVKGRFTISRDYAKNTVYLQMNSLKPEDTAVYYCARDPGDTYYYSYPEGDYWGQGTQVTVSS,polyreactivity (PSR sort gate),low polyreactivity
QVQLVETGGGLVQAGGRLRLSCAASGSTFGSYAMGWYRQAPGKERELVATITESDGTTYYADSVKGSFTISRDNAKNTVYLQMNSLKREDTAVYYCAANYSGDRKRYWPGDTDDYWGQGTQVTVSS,polyreactivity (PSR sort gate),high polyreactivity
QVQLVETGGGLVQAGGSLGLSCDASGSTFLYVRGWYRQAPGKERELVAAISESGGSPYYADSVKGRFTISRDNAKNTVYLQMNSLKPEDTAVYYCAADLPSGLQYRYYRVDYWGQGTQVTVSS,polyreactivity (PSR sort gate),low polyreactivity
QVQLVETGGGLVQAGGSLLLSSAASGIIIRYYGMGCYGQAPGTERELVARIRWTGGSTYSADSVKGRFTISRDNAKNTVYLQMNSLKPEDTAVYYCAADIWQYSRIANYHPFDYWGQGTQVTVSS,polyreactivity (PSR sort gate),low polyreactivity
QVQLVETGGGLVQAGGSLRLSCAASARTFVNYAMGWYRQAPGKEREFVAAITNGGRTNYADSVKGRFTISRDNAKNTVYLQMNSLKQEDTAVYYCAARYRFGGIRRFNYWGQGTQVTVSS,polyreactivity (PSR sort gate),high polyreactivity
QVQLVETGGGLVQAGGSLRLSCAASGCIITYYAMGWYRPAPGKERELVAAITASGSRTYYADSVKGRFTISRDNAKNTVYLQMNSLKPEDTAVYDCASDNWQWYPSTWYDYWGQGTQVTVSS,polyreactivity (PSR sort gate),high polyreactivity
QVQLVETGGGLVQAGGSLRLSCAASGFIFEFYAMGWYRQAPGKERELVAAITGRGGSTYYADSVKGRFTISRDNAKNTVYLQMNSLKPEDTAVYYCAASIGGQVPGFGWYDYWGQGTQVTVSS,polyreactivity (PSR sort gate),low polyreactivity
QVQLVETGGGLVQAGGSLRLSCAASGFIFGYNAMGWYRQAPGKERELVATISWSGGSTYYADSVKGRFTISRDNAKNTVYLQMNSLKPEDSAVYYCAAEGWERLGWVSWVTVDYWGQGTQVTVSS,polyreactivity (PSR sort gate),low polyreactivity
QVQLVETGGGLVQAGGSLRLSCAASGFTIWKYAMGWYRQAPGKERELVAAISLGGGRTYYADSVKGRFTISRDNANNTVYLQMNSLKPEDTAVYYCNAKIVSSVLYDYWGQGNQVTVSS,polyreactivity (PSR sort gate),low polyreactivity
